This series can be described thus: soluble on expression in E. coli; label from the status in PepcDB or PDB records.
“MSHLVYVSRVVAAPIERVWPHLRDFNGLSAWHPGVADSRLEEGGRDDAPGTVRFLSLNPSGYVRERLLMLDDAGRSLRYAIIETDLPMRDYVAGVDLCPVTEGGGTFAQWWADFDVVAGANRDEVARLVGEGVFAAGLQALDQYLRGRQALEHHHHHH”: the “soluble on expression in E. coli” value was “not soluble”.
For “MSIAIIIGTHGAAAEQLLKTAEMILGEQSNVAYIDFVPGENAETLIEKYNDRLTGLDTSKGVLFLVDTWGGSPFNAASRIAIDKENYEVVTGVNIPMLAETFMARDDEPSFAELVAVAVETGREGVKALKAPDVKSDKPETQPAAPVPTAKAPAVALGPNDHMKIGLARIDDRLIHGQVATRWTKETNVNRIIVVSDEVAADKMRKTLLTQVAPPGVTAHVVDVEKAIRVYNNPKYANDRVMLLFTNPTDVVRLVEGGVDIKSVNIGGMAFRQGKTQVNNAVSIDEKDIEAFNKLNARGIELEVRKVSSDSRLKMMDLISKLNK” the value was “not soluble”; for “MSIEEEDTNKITCTQDFLHQYFVTERVSIQFGLNNKTVKRINKDEFDKAVNCIMSWTNYPKPGLKRTASTYLLSNSFKKSATVSLPFILGDPVCMPKRVESNNNDTCLLYSDTLYDDPLIQRNDQAGDEIEDEFSFTLLRSEVNEIRPISSSSTAQILQSDYSALMYERQASNGSIFQFSSP”, “not soluble”.
On to “MSIEWYAVHTLVGQEEKAKANLEKRIKAFGLQDKIFQVLIPTEEVVELREGGKKEVVRKKLFPGYLFIQMDLGDEEEPNEAWEVVRGTPGITGFVGAGMRPVPLSPDEVRHILEVSGLLGKKEAPKAQVAFREGDQVRVVSGPFADFTGTVTEINPERGKVKVMVTIFGRETPVELDFSQVVKA”, for which the “soluble on expression in E. coli” value was “soluble”.
For “MSIKILKPGLFSTIQDIGRLGYQDLGFSEAGALDYYSLSIAQKLIGNHGPAIEYTLVGPNIEFLTDNTFAIVGGDSEPKLNGNKIDLLTVYHVRNGDQLDIGQITEGARGYIVFGHPLKINKVAQSYSTHVRSGMGGFKGRALKKYDVIATQVNHNYKTNLGKTIDFSSIPDNNYIHVIEGPQINEFDEETIAKFVNSDFKISDQSDRMGYRLKGNTVAPKNSADIISEPVALGSIQVPNDGNPIILLNDKQTIGGYTKIATVTQLDLRKLAQMKPGDIIQFKWITVEEASKKLKEFNTKFEQLLKRFDEQPLFNLNQLRHTSNKIAEIIKEDRLEHHHHHH” the value was “not soluble”; for “MSIRSGSRRLELPHLSFPGLLRMNIHKNARLTPLRREEMAVAVFGGRLTKAQAARLYGVSLKIVSRWTERFRISGRAAMTDRSSRPTRSPRQMGQDIVERILHLRRQRLTGKHIAMETGVSPATVSRILRRAKLSRMKDIDPVEPVIRYEYAEPGGLIHLDIKRLGRFERVGHRITGNRTRQSNTRGVGWEYVHVCIDDVSRIAFTDIFPDEKAIMPLEHHHHHH”, “not soluble”; for “MSITAQLAALAGHGIELAKEIFAHGTSLKSKEDLAAVLGFDPTRVGRYQKTAKALFGPTDQPQLRAQAIAIAQKNNFSIDVLALINCKVGRLADAPLREEFRLELHRFAVDNSYTAIKQFANDQLEKRNGPNPARQHSLRYARFSHHPDANGMRYLITSLPDETMTAIEAKLVDKAKAHKSDTISM”, “not soluble”.
For “MSKAFDLVVIGAGSGGLEAGWNAATLYGKRVAVVDVQTSHGPPFYAALGGTCVNVGCVPKKLMVTGAQYMDHLRESAGFGWEFDGSSVKANWKKLIAAKNEAVLDINKSYEGMFNDTEGLDFFLGWGSLESKNVVVVRETADPKSAVKERLQADHILLATGSWPQMPAIPGIEHCISSNEAFYLPEPPRRVLTVGGGFISVEFAGIFNAYKPPGGKVTLCYRNNLILRGFDETIREEVTKQLTANGIEIMTNENPAKVSLNTDGSKHVTFESGKTLDVDVVMMAIGRIPRTNDLQLGNVGVKLTPKGGVQVDEFSRTNVPNIYAIGDITDRLMLTPVAINEGAALVDTVFGNKPRKTDHTRVASAVFSIPPIGTCGLIEEVAAKEFEKVAVYMSSFTPLMHNISGSKYKKFVAKIVTNHSDGTVLGVHLLGDGAPEIIQAVGVCLRLNAKISDFYNTIGVHPTSAEELCSMRTPSYYYVKGEKMEKLPDSNL” the value was “soluble”; for “MSKDAVSILFLGIDDNEGRRKNGQTTEHSRTDSMILSTFSPEKRQIRLLSIPRDTISYIPKVGYYDKITHAHAYGGPVAAMDSVEATLNVPVDYYVRVNMDAFVEAVDELGGIYYDVPYDLNEPNTDDSGRIKIKKGYQKLNGDEALAVARTRHHDSDLKRGERQMDLIKLLFQKAKSLDSYDKLDDLVQIVGKNAKHNLTSSEIKSLASMYLSDDIEFKKSQLKGKDDYLQNIYYYNPSVSSIMKYSNILRSDLGLSKITDKDEFLDQRVIKHYGTLIPLTPLDQSLLKNNQKDSSSSDDNNDDSTNSDNNNNIQSSEENSSNSNEGIDQSSQGSTQSDNYNQTNSSNSFNNNQDQMNQIYLEHHHHHH”, “soluble”.
For “MSKDEIKKPVVLIYCDTIEGTNIYLKKICEGLEEEGVPFQIQQVEKVEDSVEVLAQNASRNSNLGIGIGVLKNGDCALLQRRLPPNLPIQTLRGEKYDPNLYRNIGINAARLAKNLPLVFA” the value was “not soluble”; for “MSKDYQSLAKLSPFELKDELIKIASSDGNRLMLNAGRGNPNFLATTPRRAFFRLGLFAAAESELSYSYMTTVGVGGLAKIDGIEGRFERYIAENRDQEGVRFLGKSLSYVRDQLGLDPAAFLHEMVDGILGCNYPVPPRMLNISEKIVRQYIIREMGADAIPSESVNLFAVEGGTAAMAYIFESLKLNGLLKAGDKVAIGMPVFTPYIEIPELAQYALEEVAINADPSLNWQYPDSELDKLKDPAIKIFFCVNPSNPPSVKMDQRSLERVRNIVAEHRPDLMILTDDVYGTFADDFQSLFAICPENTLLVYSFSKYFGATGWRLGVVAAHQQNVFDLALDKLQESEKVALDHRYRSLLPDVRSLKFIDRLVADSRAVALNHTAGLSTPQQVQMALFSLFALMDEADEYKHTLKQLIRRRETTLYRELGMPPLRDENAVDYYTLIDLQDVTAKLYGEAFSEWAVKQSSTGDMLFRIADETGIVLLPGRGFGSNRPSGRASLANLNEYEYAAIGRALRKMADELYAEYSGQAQNLKLAAALEHHHHHH”, “soluble”.
In the case of “MSKEYHIRELIMRLARLDVSESWAEDLNPAQRAVLEYLSRANKFSRSPSHVAAFLGTTRGTISQTFKALLQKNYVTEKRSQSDKRVISFDLTQKGRALLARPRLLISGLESLDSSEQNALLSTLQSTLNSLLEQNKGQPFGLCKECRHFTSSNGGGYCNLLSEKLAPPETEQICHEQDPL”, the “soluble on expression in E. coli” value is “not soluble”.
Take “MSKFTIGPLPCKNPESFTKLSAKKDTVRKTEPVEVVCRNVEGENNGECYKIKAPKTPFIINHLEKNYIPKPKETTKKRRAGEAGGVKREHSTSESDDQLEDANQPSTSSQQSSSRKKQRNQQDI”: the “soluble on expression in E. coli” value was “not soluble”.
The same measure for “MSKKLLIKTWGCQMNEYDSSKMADLLNAANGYELTEEPEEADVLLLNTCSIREKAQEKVFHQLGRWKTLKDKKPGVVIGVGGCVATQEGDHIRERAPYVDVIFGPQTLHRLPEMIKQSQTDDAPVMDISFPEIEKFDRLPEPRAEGATAFVSIMEGCSKYCTYCVVPYTRGEEVSRPMDDVLFEIAQLAEQGVREVNLLGQNVNAYRGPMHDGEICSFAELLRLVASIDGIDRIRFTTSHPLEFTDDIIAVYEDTPELVSFLHLPVQSGSDRILTMMKRPHTAIEYKSIIRKLRKARPDIQISSDFIVGFPGETDKDFQDTMKLIKDVDFDMSFSFIFSPRPGTPAADYPCDIPEQVKKERLYELQQTINAQAMRYSRLMLATEQRVLVEGPSKKNLMELRARTENNRVVNFEGSADLIGQFVDVKITDVFANSLRGELVRTEKDMDLRSVISPTQMMAKTRREDELGVATFTPLEHHHHHH”: “soluble”; for “MSKPIQMERGVKYRDADKMALIPIKNMPTEQKEVLRKPEWMKIKLPADSQRIQDIKAAMRKNNLHSVCEEASCPNLAECFNHGTATFMILGAICTRRCPFCDVAHGRPNAPEAEEPKKLAQTIHDMKLKYVVITSVDRDDLRDGGAQHFADCNREIRALNPHIKIETLVPDFRGRMEVALEALKDNPPDVFNHNLETAPRLYRKVRPGANYKWSLELLRQFKEQHPHVPTKSGLMMGLGETKEEIVEVLKDLRAHGVTMLTLGQYLAPSRHHLPVERYVPPAEFDELKEVALELGFTHAACGPFVRSSYHADLQAKGLEVK”: “not soluble”.

The values are drawn from the DeepSol protein solubility set.
